We go through one molecule from patent publication US20240293457A1 (Innovent, published 2024).

For orientation: EC50 means the concentration giving half of the maximal effect. A higher EC50 goes with a need for much substance.

The target of the experiment is T1, human CLDN18.2 on tumor cells (NUGC-4, KATO III-hCLDN18.2, DAN-G-hCLDN18.2) (human, UniProt P56856-2 1-261).
T1 construct: whole, on cells; also called Claudin18.2; DNA-G cells overexpressing Claudin18.2
As to the kind of experiment: FACS binding to NUGC-4 gastric cancer cells (MFI vs Log [Conc(nM)]). Background: In flow cytometry, cells or beads pass a laser one at a time.

B1: HB37A6 (antibody, human IgG1, kappa, V domains shown)
VH: EVQLLDSGGGLVQPGGSLRLSCAASGFTFSSYVMSWVRQAPGKGLNWVSTISHSGGSTYYADSVKGRFTISRDNSKNTLYLQMNSLRAEDTAVYYCAIDAPYYDILTGYRYWGQGTLVTVSS
VL: not shown
notes: Fully human; expressed in HEK293 cells as a full-length human IgG1 kappa monoclonal antibody
B1: it took 1.05 nM to reach a half-maximal effect (EC50).
